Reference: the supplement of paper PMC10126150
± gives the standard deviation of the averaged measurements.

Tested on: ATP
Experiment: switch fluorescence ratio, 500 uM ATP over buffer (Cy3 cluster intensity, sum of 5 cycles each) (fold (ratio)); higher = stronger signal-on switching upon ATP binding; sequences stand for … in TCGTCGGCAGCGTCAGATGTGTATAAGAGACAGTTTTTTTTTTTTTTTTTTTTTTTTT…TC
Conditions: aptamer strand: ATP DNA aptamer (quencher-CACCTGGGGGAGTATTGCGGAGGAAGG + anchor), 100 nM annealed; ATP concentration: 500 uM
Summary of the method: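 After annealing to 100 nM quencher-labelled ATP aptamer, Cy3-labelled switching-strand clusters on a modified Illumina MiSeq flow-cell were imaged in selection buffer. A second image followed after 15 min with 500 uM ATP at 22 °C, and five such buffer/ATP cycles were done, each separated by NaOH stripping and re-annealing. The fluorescence ratio, averaged per switch-domain sequence, is summed target-cycle over summed buffer-cycle Cy3 intensity per cluster, with clusters outside 100-1000 RFU excluded.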
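Note: ATP exposure 15 min at 22 °C before imaging.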

Sequence	switch fluorescence ratio
AATATATTTT	0.999 ± 0.047
AATATGCAGG	0.9657 ± 0.0034
AATATGGCCG	0.985 ± 0.037
AATATGTGTT	1.02 ± 0.031
AATATTATGA	1.01 ± 0.012
AATATTGAAC	0.99 ± 0.036
AATATTGTGG	0.974 ± 0.019
AATATTTAGA	0.9837 ± 0.0059
AATATTTTGA	1.02 ± 0.016
AATCAAGAGT	1.028 ± 0.0031
AATCACGGAG	1.019 ± 0.0061
AATCATAGTT	1 ± 0.014
AATCATGGTT	1 ± 0.028
AATCATGTTG	0.981 ± 0.033
AATCCAATGT	1.003 ± 0.0069
AATCCGGGGG	0.9661 ± 0.0022
AATCCGTGTG	1.01 ± 0.019
AATCGAGGGA	1 ± 0.027
AATCGAGTCC	1.107 ± 0.011
AATCGGAGCT	1.09 ± 0.026
AATCGGATAA	1.05 ± 0.019
AATCGGCACG	1.01 ± 0.02
AATCGGGGGA	1.01 ± 0.048
AATCGGGTGT	1.11 ± 0.047
AATCGGGTTG	1 ± 0.019

Sequence	switch fluorescence ratio
AATCGGTTCT	0.979 ± 0.05
AATCGGTTGG	0.966 ± 0.019
AATCGTCTGG	0.993 ± 0.019
AATCGTGGTA	1.01 ± 0.029
AATCTCGGCC	0.986 ± 0.015
AATCTGGGTA	0.991 ± 0.016
AATCTGTGAA	1 ± 0.012
AATCTTCTGT	0.982 ± 0.04
AATGAACGGG	0.981 ± 0.0089
AATGAACTCT	1.02 ± 0.034
AATGAATAGA	1.012 ± 0.008
AATGAATGGG	0.981 ± 0.018
AATGAATTTG	0.975 ± 0.043
AATGACTCGT	0.974 ± 0.01
AATGAGGCTT	0.996 ± 0.011
AATGAGGGAG	0.995 ± 0.01
AATGAGTCG	0.991 ± 0.028
AATGAGTGGG	1 ± 0.041
AATGAGTTTG	0.991 ± 0.019
AATGATGCCG	0.9864 ± 0.008
AATGATTTTG	0.9765 ± 0.0065
AATGCAACTT	1.01 ± 0.032
AATGCAGAGT	0.983 ± 0.012
AATGCCTTTG	1.02 ± 0.035
AATGCGGTTC	0.9709 ± 0.0026

Sequence	switch fluorescence ratio
AATGCTCGGA	0.981 ± 0.02
AATGCTCGTA	1.01 ± 0.023
AATGCTTGAG	1.05 ± 0.08
AATGGAAATC	1.003 ± 0.0086
AATGGAAGGC	1.09 ± 0.07
AATGGCATCG	1.02 ± 0.011
AATGGCGCGC	0.992 ± 0.017
AATGGCGGGT	0.996 ± 0.034
AATGGCTCGC	0.996 ± 0.061
AATGGGCACA	1 ± 0.042
AATGGGCTAG	0.993 ± 0.059
AATGGGGATC	0.984 ± 0.062
AATGGGGATT	1.01 ± 0.035
AATGGGGGTT	1.02 ± 0.037
AATGGGTCTA	0.985 ± 0.02
AATGGGTCTG	0.978 ± 0.052
AATGGGTTAT	0.992 ± 0.025
AATGGGTTCC	1.027 ± 0.0044
AATGGGTTCT	0.998 ± 0.079
AATGGGTTGT	1.02 ± 0.032
AATGGTACGA	1 ± 0.035
AATGGTCATG	0.993 ± 0.075
AATGGTGCGC	0.984 ± 0.017
AATGGTGTAA	0.99259 ± 0.00066
AATGGTTAAG	1 ± 0.054

Sequence	switch fluorescence ratio
AATGGTTTTG	0.9921 ± 0.0034
AATGTCGCTG	1.003 ± 0.0018
AATGTCTAGA	0.975 ± 0.023
AATGTCTTTG	0.984 ± 0.013
AATGTGAGGG	0.9772 ± 0.0092
AATGTGCATA	0.988 ± 0.011
AATGTGCCCA	0.9775 ± 0.007
AATGTGCCGG	1.01 ± 0.019
AATGTGGGGG	0.996 ± 0.018
AATGTGTATG	0.991 ± 0.033
AATGTTAGAA	0.99 ± 0.05
AATGTTTCGG	0.977 ± 0.022
AATGTTTGAC	0.977 ± 0.038
AATGTTTGCT	1 ± 0.018
AATTAAGAGG	1 ± 0.011
AATTAATGAT	0.981 ± 0.029
AATTACCAAA	1.01 ± 0.072
AATTACCGGT	0.979 ± 0.045
AATTAGAAGC	0.9962 ± 0.0075
AATTAGAGGG	0.984 ± 0.046
AATTAGTGTT	0.99 ± 0.02
AATTAGTTGG	0.9923 ± 0.0071
AATTAGTTGT	0.9918 ± 0.0084
AATTATAAGA	0.996 ± 0.027
AATTATCTCG	1.01 ± 0.018

Sequence	switch fluorescence ratio
AATTATTGAG	1.02 ± 0.038
AATTCAGGCA	0.98668 ± 0.00049
AATTCAGTGT	1.01 ± 0.025
AATTCATGTA	0.9886 ± 0.0064
AATTCCGGTC	1.093 ± 0.0066
AATTCCTATG	1.04 ± 0.05
AATTCTAAAC	0.9881 ± 0.0038
AATTCTGAGG	0.977 ± 0.025
AATTGAAGAT	1.03 ± 0.039
AATTGACTGT	1.07 ± 0.025
AATTGAGGCG	1.02 ± 0.089
AATTGCACCT	1.22 ± 0.05
AATTGCGTGG	0.988 ± 0.017
AATTGCTTTC	1.06 ± 0.013
AATTGGGGCG	0.969 ± 0.025
AATTGGGGGC	0.98 ± 0.022
AATTGGGGTG	1.06 ± 0.011
AATTGGTAGC	0.966 ± 0.015
AATTGGTAGG	1 ± 0.072
AATTGGTGAA	1.01 ± 0.014
AATTGTACGG	1.04 ± 0.013
AATTGTGGCT	1 ± 0.025
AATTGTGGGG	0.983 ± 0.057
AATTGTGTAT	0.973 ± 0.026
AATTGTTGGC	0.999 ± 0.035

Sequence	switch fluorescence ratio
AATTTACAGC	1.03 ± 0.042
AATTTACGAA	1.01 ± 0.019
AATTTACGGA	1.06 ± 0.037
AATTTAGCCG	0.977 ± 0.077
AATTTAGGGG	0.989 ± 0.03
AATTTATCAG	1.03 ± 0.039
AATTTATTGT	1.003 ± 0.0013
AATTTCAAGG	1 ± 0.048
AATTTCACCA	0.999 ± 0.013
AATTTCGGAC	1.07 ± 0.071
AATTTCGGAG	1.02 ± 0.026
AATTTGAGGG	0.979 ± 0.016
AATTTGATC	1.03 ± 0.021
AATTTGCATG	0.978 ± 0.013
AATTTGCGGG	0.98 ± 0.024
AATTTGCTTT	0.986 ± 0.036
AATTTGGCAT	1.012 ± 0.0063
AATTTGGCCT	1.05 ± 0.035
AATTTGGGGA	0.968 ± 0.013
AATTTGTAGT	1.03 ± 0.025
AATTTGTGTG	0.99 ± 0.034
AATTTGTTTT	1.02 ± 0.028
AATTTTAGCC	0.987 ± 0.011
AATTTTATTT	1.03 ± 0.062
AATTTTGCTT	1.01 ± 0.015

Sequence	switch fluorescence ratio
AATTTTGGCT	0.964 ± 0.03
AATTTTTTGG	1 ± 0.046
ACAAAGGAGC	1 ± 0.022
ACAAAGTAAA	1.01 ± 0.035
ACAAATGGGA	1.02 ± 0.044
ACAACAGGGG	2.91 ± 0.65
ACAACCGTTT	1.02 ± 0.027
ACAACTTTTT	1.02 ± 0.044
ACAAGAATTA	1.01 ± 0.055
ACAAGGGCGG	1.01 ± 0.015
ACAAGTAATA	1.06 ± 0.057
ACAAGTATTA	1.017 ± 0.0051
ACAAGTGAGG	1.02 ± 0.023
ACAAGTTTTG	1.04 ± 0.0022
ACAATATTTT	1.02 ± 0.02
ACAATCTTTA	0.994 ± 0.03
ACAATTGTCG	1.028 ± 0.01
ACACAACTGT	1.14 ± 0.077
ACACAAGGCT	1.03 ± 0.037
ACACACTCAA	1.28 ± 0.029
ACACAGAGAG	1.02 ± 0.033
ACACAGAGTT	1.03 ± 0.014
ACACAGGGGG	1.0997 ± 0.00043
ACACAGTATT	1.0263 ± 0.00076
ACACATAGAC	1.17 ± 0.051

Sequence	switch fluorescence ratio
ACACATTTTT	1.011 ± 0.01
ACACCAGCTA	0.9876 ± 0.0061
ACACCGGGTC	1.21 ± 0.071
ACACGGGGAG	1.01 ± 0.044
ACACGGGGGT	1.01 ± 0.018
ACACGTAGTT	0.984 ± 0.021
ACACTATCAC	1.21 ± 0.049
ACACTTTTTT	1 ± 0.055
ACAGAACAGT	1.03 ± 0.016
ACAGAAGGGG	1.02 ± 0.012
ACAGACTGAT	1.1 ± 0.076
ACAGAGAAAT	1.03 ± 0.036
ACAGAGGGTT	1.03 ± 0.045
ACAGATTCTA	0.984 ± 0.05
ACAGCATGCC	0.997 ± 0.013
ACAGCATGTA	0.9589 ± 0.0093
ACAGCGGATG	1.028 ± 0.0095
ACAGCTAGTA	0.986 ± 0.019
ACAGCTCGAG	1 ± 0.02
ACAGCTGATG	0.977 ± 0.059
ACAGGAAGAG	1.05 ± 0.038
ACAGGACAGG	1.14 ± 0.014
ACAGGACCGT	1.11 ± 0.038
ACAGGAGGTG	1.13 ± 0.035
ACAGGAGTTC	0.968 ± 0.053
